Laboratory results from PMC4466810 (2015).

Target: T1, VEGF-A (VEGF165) (Homo sapiens, UniProt P15692)
T1 chain: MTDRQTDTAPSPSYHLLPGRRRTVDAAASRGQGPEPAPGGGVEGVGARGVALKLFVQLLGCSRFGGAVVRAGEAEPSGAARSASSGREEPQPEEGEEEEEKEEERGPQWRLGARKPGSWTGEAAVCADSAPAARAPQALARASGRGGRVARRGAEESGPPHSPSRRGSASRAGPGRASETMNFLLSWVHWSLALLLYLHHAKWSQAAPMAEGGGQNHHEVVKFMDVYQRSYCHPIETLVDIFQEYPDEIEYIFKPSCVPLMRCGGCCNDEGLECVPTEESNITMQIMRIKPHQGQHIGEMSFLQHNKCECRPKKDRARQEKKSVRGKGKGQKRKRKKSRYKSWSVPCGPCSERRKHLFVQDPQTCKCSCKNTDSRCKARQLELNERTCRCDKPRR
Assay: equilibrium binding assay (ELISA of unbound blocker)

- Kd: 180 pM
B1: HB-002.1 (VEGFR1 D2-Fc fusion) 129-228 (protein)
chain: SDTGRPFVEMYSEIPEIIHMTEGRELVIPCRVTSPNITVTLKKFPLDTLIPDGKRIIWDSRKGFIISNATYKEIGLLTCEATVNGHLYKTNYLTHRQTNT
modifications: fused to human IgG1 Fc
